Data published in publication PMC6897951, “Unusual features of the c-ring of F1FO ATP synthases” (Scientific Reports, 2019).

Target: the molecule itself
Test: crystal structure; in meso crystallisation (monooleoyl lipidic phase) of solubilised cF1FO, 27.4 mg/mL, 0.1 M MES pH 5.8, 1.4 M ammonium sulfate, 22 °C; space group I121; 2.3 Å

B1: c-subunit of the spinach chloroplast F1FO ATP synthase (cF1FO), as the c14-ring (natural protein, Spinacia oleracea (spinach), UniProt P69447 1-81, looked up)
chain: MNPLIAAASVIAAGLAVGLASIGPGVGQGTAAGQAVEGIARQPEAEGKIRGTLLLSLAFMEALTIYGLVVALALLFANPFV
notes: ATP synthase subunit c of the chloroplast FO, Spinacia oleracea; Native protein from leaves; also called c1 subunit; c1 protomer; source: only the c14-ring crystallised; copies: 14
- stoichiometry N: 14
